Source: publication PMC8402870
Read-outs that look alike come from different tables or passages of the source.

Legend:
[1] = tested on: T1, Pf4r (repressor C) (Pseudomonas aeruginosa PAO1 (Pf4 filamentous prophage)), ORF:4ff4b857; assay: EMSA
T1 sequence: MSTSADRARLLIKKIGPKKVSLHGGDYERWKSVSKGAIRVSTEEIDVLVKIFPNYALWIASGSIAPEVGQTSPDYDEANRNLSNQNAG

[2] = biological target: Pf4r, repressor C protein of the Pf4 filamentous phage (wild type) (Pf4 filamentous phage (prophage of Pseudomonas aeruginosa PAO1)); assay: SEC-MALS; Superdex 75 5/150 equilibrated with PBS; samples prepared in 20 mM HEPES pH 7.5, 300 mM NaCl, 10% glycerol, 2 mM TCEP; 50 uL loaded at 20 mg/mL; monomer to dimer
[3] = biological target: Pf6r, repressor of the Pf6 filamentous phage (wild type) (Pf6 filamentous phage (prophage of Pseudomonas aeruginosa PAO1)); assay: as above

| Substance | binding [1] | also measured |
| --- | --- | --- |
| TTTTGGGGCCGATTTTCTTGATTAATAGTCTTGCTCTATCGGCTGACGTGCTCATATAGAAATTTATTCCGGTGAAATAGTTGCCCTGACGTGGCTTTGGGGAAATAATTTCTCCAGGGTAATTATTTCTCTA (double strand) [Ppf4r-G>T] | binds more weakly | – |
| TTTTGGGGCCGATTTTCTTGATTAATAGTCTTGCTCTATCGGCTGACGTGCTCATATAGAAATTTATTCCGGTGAAATAGTTGCCCTGACGTGGCTTTGGGGAGATAATTTCTCCAGGGTAATTATTTCTCTA (double strand) [Ppf4r-doubleSNP] | no binding | – |
| Pf4r, repressor C protein of the Pf4 filamentous phage (wild type) (natural protein) | – | stoichiometry N [2]: 2 |
| TTTTGGGGCCGATTTTCTTGATTAATAGTCTTGCTCTATCGGCTGACGTGCTCATATAGAAATTTATTCCGGGGAAATAGTTGCCCTGACGTGGCTTTGGGGAGATAATTTCTCCAGGGTAATTATTTCTCTA (double strand) [Ppf4r-A>G] | no binding | – |
| Pf6r, repressor of the Pf6 filamentous phage (wild type) (natural protein) | – | stoichiometry N [3]: 2 |
| TTTTGGGGCCGATTTTCTTGATTAATAGTCTTGCTCTATCGGCTGACGTGCTCATATAGAAATTTATTCCGGGGAAATAGTTGCCCTGACGTGGCTTTGGGGAAATAATTTCTCCAGGGTAATTATTTCTCTA (double strand) [Ppf4r] | – | binding ([1]; EMSA: 10 mM Tris, 1 mM DTT, 2.5% glycerol, 5 ug/uL BSA, 0.05% NP-40, 80 mM KCl, 5 mM MgCl2, 2 mM EDTA, 10 fmol probe, 30 min, 30 C (protein diluted in TE pH …)): binds |
